# Results: patent publication US20060099150A1
# Experiments:
# [1] = molecular target: pIgR Domain 6 GST (D6-GST) fusion protein, species not stated (Schistosoma japonica) [GST: P08515]; assay: SPR BIAcore, 1:1 Langmuir global fit 62.5-1000 nM; ligand not named
# [2] = molecular target: pIgR expressed on transfected MDCK cells; assay: cell-based or functional assay
# Sequence of pIgR Domain 6 GST (D6-GST) fusion protein, species not stated (Schistosoma japonica) [GST: P08515] (P08515 whole entry, the tested form may be a part): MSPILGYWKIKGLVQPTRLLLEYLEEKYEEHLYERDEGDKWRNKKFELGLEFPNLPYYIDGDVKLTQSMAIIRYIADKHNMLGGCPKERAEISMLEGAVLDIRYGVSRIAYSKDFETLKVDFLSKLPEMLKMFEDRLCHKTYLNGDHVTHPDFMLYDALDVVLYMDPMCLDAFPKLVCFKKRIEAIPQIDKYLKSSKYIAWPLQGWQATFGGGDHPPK
binder,measurement,setting,value
sFv5AF (scFv) scFv: DYKAKQVQLVQSGGGVVQPGRSLRLSCAASGFTFSSYAMHWVRQAPGKGLEWVSAISGSGGSTYYADSVKGRFTISRDNAKNSLYLQMNSLRAEDTAVYYCARDTRGYFDLWGRGTLVTVSSGGGGSGGGGSGGGGSSELTQDPAMSVALGQTVRITCQGDSLRKYHASWYQQRPRQAPRLVVYGKNERPSGIPERFSGSTSGDTASLTISGLQAEDEADYYCHSRDSNADLVVFGGGTKVTVLGAAAEQKLISEEDLNGAAHHHHHH,Ka,[1],4.47e+06 M⁻¹
same,Kd,[1],224 nM
same,koff,[1],0.00464 s⁻¹
same,kon,[1],27100 M⁻¹ s⁻¹
same,transcytosis on pIgR expressing MDCK cells overnight,[2],2%
